From PMC2982890 (Biochemistry, 2010)

B1: nuclear coactivator binding domain (NCBD) of CBP (residues 2059–2117) (domain or fragment, mouse, UniProt P45481 2059-2117, looked up)
chain: PPRSISPSALQDLLRTLKSPSSPQQQQQVLNILKSNPQLMAAFIKQRTAKYVANQPGMQ

Tests used:
[1] = target: p53(1–61), full-length transactivation domain (TAD) of human p53 (human, UniProt P04637 1-61); assay: ITC + NMR titration
[2] = target: B1; assay: ITC + NMR titration
[3] = target: B1; assay: ITC

| binding result [1] | Binder | fold weaker binding than p53(1–61) [2] [fold] | Kd [3] [µM] | dH [3] [kcal/mol] |
| --- | --- | --- | --- | --- |
| binds | B1 |  |  |  |
|  | LSQETFSDLWKLLPE (peptide, UniProt P04637 14-28, looked up) [p53(14–28), isolated AD1 peptide] | ~170 |  |  |
|  | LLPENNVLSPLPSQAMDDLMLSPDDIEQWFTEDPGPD (domain or fragment, human, UniProt P04637 25-61, looked up) [p53(25–61)] | 2 to 3 | 5.4 ± 1.8 | -4.12 ± 0.46 |
